Experimental findings from the supplement of paper PMC5998384 are described below.

For series [1], the system named is HeLa Kyoto. In words: thermal stability score vs G1/S (z-score of summed log2 fold changes over temperatures); higher = more thermally stable than in G1/S.
Series [2] relates to HeLa Kyoto. In words: solubility change mitosis vs G1/S (difference of NP-40 vs SDS log2 ratios) (log2 ratio difference); higher = more soluble in mitosis.
Series [3] concerns HeLa Kyoto. In words: solubility in G1/S (NP-40 vs SDS abundance) (log2 ratio); higher = more soluble. Particulars: cell cycle stage: G1/S.
The mark [4] stands for this setting: cell cycle stage: early G1 (4.5 h after nocodazole release).
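Throughout, for solubility change mitosis vs G1/S (difference of NP-40 vs SDS log2 ratios): synchronized HeLa Kyoto cells (double thymidine block for G1/S, nocodazole release for mitosis), protein amounts in NP-40 versus SDS lysates quantified by mass spectrometry, three biological replicates.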
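Throughout, for solubility in G1/S (NP-40 vs SDS abundance): HeLa Kyoto cells arrested at G1/S by double thymidine block, proteins quantified by TMT10plex mass spectrometry in mild NP-40 versus SDS extracts, three biological replicates.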
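Throughout, for thermal stability score vs G1/S (z-score of summed log2 fold changes over temperatures): synchronized HeLa Kyoto cells, proteins quantified by TMT10plex mass spectrometry, three biological replicates, mitosis taken 0.5 h after nocodazole release, G1/S directly after double thymidine block.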

For “MPGRSSSNSGSTGFISFSGVESALSSLKNFQACINSGMDTASSVALDLVESQTEVSSEYSMDKAMVEFATLDRQLNHYVKAVQSTINHVKEERPEKIPDLKLLVEKKFLALQSKNSDADFQNNEKFVQFKQQLKELKKQCGLQADREADGTEGVDEDIIVTQSQTNFTCPITKEEMKKPVKNKVCGHTYEEDAIVRMIESRQKRKKKAYCPQIGCSHTDIRKSDLIQDEALRRAIENHNKKRHRHSE [NSMCE2]”, the thermal stability score in the series on HeLa Kyoto [1] (setting [4]) is -0.691; with HeLa Kyoto [1] (cell cycle stage: mitosis) it was -0.266. Besides, the “solubility change mitosis (log2)” value in the series with HeLa Kyoto [2] was determined as 0.0514. The “solubility in G1/S (log2)” value with HeLa Kyoto [3] was -0.0327.
In the same order, the values of “MRPPACWWLLAPPALLALLTCSLAFGLASEDTKKEVKQSQDLEKSGISRKNDIDLKGIVFVIQSQSNSFHAKRAEQLKKSILKQAADLTQELPSVLLLHQLAKQEGAWTILPLLPHFSVTYSRNSSWIFFCEEETRIQIPKLLETLRRYDPSKEWFLGKALHDEEATIIHHYAFSENPTVFKYPDFAAGWALSIPLVNKLTKRLKSESLKSDFTIDLKHEIALYIWDKGGGPPLTPVPEFCTNDVDFYCATTFHSFLPLCRKPVKKKDIFVAVKTCKKFHGDRIPIVKQTWESQASLIEYYSDYTENSIPTVDLGIPNTDRGHCGKTFAILERFLNRSQDKTAWLVIVDDDTLISISRLQHLLSCYDSGEPVFLGERYGYGLGTGGYSYITGGGGMVFSREAVRRLLASKCRCYSNDAPDDMVLGMCFSGLGIPVTHSPLFHQARPVDYPKDYLSHQVPISFHKHWNIDPVKVYFTWLAPSDEDKARQETQKGFREEL [B3GLCT]” are 1.99, 2.59, -0.0692 and 0.0765.
With “MSAKDERAREILRGFKLNWMNLRDAETGKILWQGTEDLSVPGVEHEARVPKKILKCKAVSRELNFSSTEQMEKFRLEQKVYFKGQCLEEWFFEFGFVIPNSTNTWQSLIEAAPESQMMPASVLTGNVIIETKFFDDDLLVSTSRVRLFYV [PDE6D]”, the thermal stability score in the series on HeLa Kyoto [1] (setting [4]) was 0.113; in the series with HeLa Kyoto [1] (cell cycle stage: mitosis), -0.864. For the same sequence, in the series on HeLa Kyoto [2], the “solubility change mitosis (log2)” value was -0.258. For the same sequence, the “solubility in G1/S (log2)” value with HeLa Kyoto [3] was found to be 0.207.
The matching figures for “MSGDTCLCPASGAKPKLSGFKGGGLGNKYVQLNVGGSLYYTTVRALTRHDTMLKAMFSGRMEVLTDKEGWILIDRCGKHFGTILNYLRDDTITLPQNRQEIKELMAEAKYYLIQGLVNMCQSALQDKKDSYQPVCNIPIITSLKEEERLIESSTKPVVKLLYNRSNNKYSYTSNSDDHLLKNIELFDKLSLRFNGRVLFIKDVIGDEICCWSFYGQGRKLAEVCCTSIVYATEKKQTKVEFPEARIYEETLNVLLYETPRVPDNSLLEATSRSRSQASPSEDEETFELRDRVRRIHVKRYSTYDDRQLGHQSTHRD [TNFAIP1]”: 1.18e-17, -0.17, 0.627 and -1.22.
As for “MSQVMSSPLLAGGHAVSLAPCDEPRRTLHPAPSPSLPPQCSYYTTEGWGAQALMAPVPCMGPPGRLQQAPQVEAKATCFLPSPGEKALGTPEDLDSYIDFSLESLNQMILELDPTFQLLPPGTGGSQAELAQSTMSMRKKEESEALDIKYIEVTSARSRCHDGPQHCSSPSVTPPFGSLRSGGLLLSRDVPRETRSSSESLIFSGNQGRGHQRPLPPSEGLSPRPPNSPSISIPCMGSKASSPHGLGSPLVASPRLEKRLGGLAPQRGSRISVLSASPVSDVSYMFGSSQSLLHSSNSSHQSSSRSLESPANSSSSLHSLGSVSLCTRPSDFQAPRNPTLTMGQPRTPHSPPLAKEHASSCPPSITNSMVDIPIVLINGCPEPGSSPPQRTPGHQNSVQPGAASPSNPCPATRSNSQTLSDAPFTTCPEGPARDMQPTMKFVMDTSKYWFKPNITREQAIELLRKEEPGAFVIRDSSSYRGSFGLALKVQEVPASAQSRPGEDSNDLIRHFLIESSAKGVHLKGADEEPYFGSLSAFVCQHSIMALALPCKLTIPQRELGGADGASDSTDSPASCQKKSAGCHTLYLSSVSVETLTGALAVQKAISTTFERDILPTPTVVHFKVTEQGITLTDVQRKVFFRRHYPLTTLRFCGMDPEQRKWQKYCKPSWIFGFVAKSQTEPQENVCHLFAEYDMVQPASQVIGLVTALLQDAERM [TNS4]”, the thermal stability score was -0.0391 with HeLa Kyoto [1] (setting [4]) and 2.56 with HeLa Kyoto [1] (cell cycle stage: mitosis). The “solubility change mitosis (log2)” value in the series with HeLa Kyoto [2] is -0.0286. Moreover, in the series with HeLa Kyoto [3], the “solubility in G1/S (log2)” value is 0.00637.
“MSSCVSSQPSSNRAAPQDELGGRGSSSSESQKPCEALRGLSSLSIHLGMESFIVVTECEPGCAVDLGLARDRPLEADGQEVPLDTSGSQARPHLSGRKLSLQERSQGGLAAGGSLDMNGRCICPSLPYSPVSSPQSSPRLPRRPTVESHHVSITGMQDCVQLNQYTLKDEIGKGSYGVVKLAYNENDNTYYAMKVLSKKKLIRQAGFPRRPPPRGTRPAPGGCIQPRGPIEQVYQEIAILKKLDHPNVVKLVEVLDDPNEDHLYMVFELVNQGPVMEVPTLKPLSEDQARFYFQDLIKGIEYLHYQKIIHRDIKPSNLLVGEDGHIKIADFGVSNEFKGSDALLSNTVGTPAFMAPESLSETRKIFSGKALDVWAMGVTLYCFVFGQCPFMDERIMCLHSKIKSQALEFPDQPDIAEDLKDLITRMLDKNPESRIVVPEIKLHPWVTRHGAEPLPSEDENCTLVEVTEEEVENSVKHIPSLATVILVKTMIRKRSFGNPFEGSRREERSLSAPGNLLTKKPTRECESLSELKEARQRRQPPGHRPAPRGGGGSALVRGSPCVESCWAPAPGSPARMHPLRPEEAMEPE [CAMKK2]”: the thermal stability score in the series with HeLa Kyoto [1] (setting [4]) was -0.348; with HeLa Kyoto [1] (cell cycle stage: mitosis), -0.0506. For the same sequence, the “solubility change mitosis (log2)” value in the series on HeLa Kyoto [2] is -0.0691. Also, the “solubility in G1/S (log2)” value with HeLa Kyoto [3] worked out at 0.289.
